Test results from paper PMC2662417, “Pxmp2 Is a Channel-Forming Protein in Mammalian Peroxisomal Membrane” (PLoS ONE, 2009).

Experiments:
[1] = molecular target: the molecule itself; experiment: SEC + cross-linking; purified native Pxmp2 in detergent; Superdex 200 size-exclusion chromatography; protein eluted from the column treated with Sulfo-EGS, immunoblot with anti-Pxmp2; details in Text S1
[2] = molecular target: the molecule itself; experiment: cross-linking; Genapol X-080-solubilised proteins (about 50 ug) of the PPF of Sf9 cells expressing His-tagged Pxmp2; DSS at 0.1, 0.2, 0.5 and 1.0 mM, 30 min at room temperature; SDS-PAGE, immunoblot with anti-His-tag antibodies

B1: native Pxmp2 purified from mouse liver peroxisomes (natural protein, mouse (endogenous in mouse liver), UniProt P42925 1-194, looked up)
chain: MAPAASRLRVESELGSLPKRALAQYLLLLKLYPVLTKAVSSGILSALGNLLAQTIEKKQRKDSRLLEVSGLLRYLVYGLFVTGPLSHYLYLFMEYSVPPEVPWASVKRLLLDRLFFAPTFLLLFFFVMNLLEGKNVSVFVAKMRSGFWPALQMNWRMWTPLQFININYVPLQFRVLFANMAALFWYAYLASLGK
notes: Pxmp2, peroxisomal membrane protein 2 (22 kDa), mouse; native protein isolated from liver peroxisomes; also called PMP22; purified Pxmp2; source: purified from mouse liver peroxisomes (conventional chromatography: ion-exchange and size-exclusion steps, in detergent)
B1 was tested, and the “stoichiometry N” value [1] was 3.

B2: His-tagged Pxmp2 protein (natural protein, mouse, UniProt P42925 1-194, looked up)
chain: MAPAASRLRVESELGSLPKRALAQYLLLLKLYPVLTKAVSSGILSALGNLLAQTIEKKQRKDSRLLEVSGLLRYLVYGLFVTGPLSHYLYLFMEYSVPPEVPWASVKRLLLDRLFFAPTFLLLFFFVMNLLEGKNVSVFVAKMRSGFWPALQMNWRMWTPLQFININYVPLQFRVLFANMAALFWYAYLASLGK
notes: Pxmp2, mouse, recombinant with a His tag (about 27 kDa); also called mouse recombinant Pxmp2
With B2 the “stoichiometry N” value [2] was 3.
